Measured values reported in US20110263816A1.
No end group written: not given here.

Legend:
[1] = molecular target: E3gX, X = Arg
[2] = molecular target: E3gX, X = Asn
[3] = molecular target: E3gX, X = Asp
[4] = molecular target: E3gX, X = Cys
[5] = molecular target: E3gX, X = Gln
[6] = molecular target: E3gX, X = Glu
[7] = molecular target: E3gX, X = His
[8] = molecular target: E3gX, X = Lys
[9] = molecular target: E3gX, X = Phe
[10] = molecular target: E3gX, X = Ser
[11] = molecular target: E3gX, X = Trp
[12] = molecular target: E3gX, X = Tyr

B1: K3a,eRh2 (peptide)
peptide: KISALKQKESALEQKISALEK
modifications: also: Rh2(OAc)2 dirhodium centre bound through two Glu side chains, places not given here
% conv. at 24 h (covalent modification with diazo 1, MALDI-TOF MS) [1]: 73 % conv. | % conv. at 24 h (covalent modification with diazo 1, MALDI-TOF MS) [2]: 70 % conv. | % conv. at 24 h (covalent modification with diazo 1, MALDI-TOF MS) [3]: 53 % conv. | % conv. at 24 h (covalent modification with diazo 1, MALDI-TOF MS) [4]: 78 % conv. | % conv. at 24 h (covalent modification with diazo 1, MALDI-TOF MS) [5]: > 95 % conv. | % conv. at 24 h (covalent modification with diazo 1, MALDI-TOF MS) [6]: 76 % conv. | % conv. at 24 h (covalent modification with diazo 1, MALDI-TOF MS) [7]: 17 % conv. | % conv. at 24 h (covalent modification with diazo 1, MALDI-TOF MS) [8]: 8 % conv. | % conv. at 24 h (covalent modification with diazo 1, MALDI-TOF MS) [9]: > 95 % conv. | % conv. at 24 h (covalent modification with diazo 1, MALDI-TOF MS) [10]: 28 % conv. | % conv. at 24 h (covalent modification with diazo 1, MALDI-TOF MS) [11]: > 95 % conv. | % conv. at 24 h (covalent modification with diazo 1, MALDI-TOF MS) [12]: > 95 % conv.
